From patent US20200079862A1 (AGENUS, published 2020)

Columns and labels:
[1] = biological target: T1, recombinant human TWEAK R-Fc (SinoBiological, 10431-H01H) (human, UniProt Q9NP84 28-80); test: Luminex suspension array, protein coupled to microspheres, PE MFI
T1 construct: Bought construct; not shown: Fc part
Method: (§1) A number of TNFR family members were chemically coupled to Luminex® microspheres using standard NETS-ester chemistry. […] Briefly, 25 μl of each dilution was incubated in the dark (20° C., 650 rpm) with 1500 Luminex® microspheres in 5 μl assay buffer for 1 hour in 96 half-well filter plates (Millipore, MABVN1250). Luminex® microspheres were coupled with recombinant human OX40-His (SinoBiological, 10481-H08H), recombinant human OX40-Fc (R&D systems, 3388-OX), recombinant human LTBR-Fc (Acros Biosystems, LTR-H5251), recombinant human GITR-His (SinoBiological, 13643-H08H), recombinant human GITR-Fc (R&D, 689-GR), recombinant human DR6-Fc (SinoBiological, 10175-H02H), recombinant human DR3-Fc (R&D, 943-D3), recombinant human TWEAK R-Fc (SinoBiological, 10431-H01H), recombinant human CD137-His (SinoBiological, 10041-H08H), recombinant human BAFFR-Fc (R&D, 1162-BR) or anti-human IgG (F(ab)₂-specific, JIR, 105-006-097) via amine coupling with COOH bead surface. Standard curves were generated using duplicates of 25 μl of a human IgG1 standard (Sigma, I5154) with 1:3 dilution series (0.08-540 ng/ml). Detection was carried out using 60 μl of goat anti-human IgG F(ab)₂ labeled with R-PE (2.5 μg/ml; JIR 109-116-098, AbDSerotec Rapid RPE Antibody Conjugation Kit, LNK022RPE) and another hour of incubation time (20° C., 650 rpm). Plates were analyzed using a Luminex® 200 system (Millipore). A total of 100 beads were counted per well in a 48 μl sample volume. PE MFI values were used to determine specific or non-specific binding to the recombinant proteins mentioned above.

[2] = biological target: T2, recombinant human CD137-His (SinoBiological, 10041-H08H) (human, UniProt Q07011 24-186); test: as above
T2 construct: Bought construct; not shown: His tag
Method: as §1

[3] = biological target: T3, recombinant human BAFFR-Fc (R&D, 1162-BR) (human, UniProt Q96RJ3 7-71, limits assumed); test: as above
T3 construct: Bought construct; not shown: Fc part
Method: as §1

[4] = biological target: T4, recombinant human GITR-His (SinoBiological, 13643-H08H) (human, UniProt Q9Y5U5 26-161); test: as above
T4 construct: Bought construct; not shown: His tag
T4 sequence (looked up): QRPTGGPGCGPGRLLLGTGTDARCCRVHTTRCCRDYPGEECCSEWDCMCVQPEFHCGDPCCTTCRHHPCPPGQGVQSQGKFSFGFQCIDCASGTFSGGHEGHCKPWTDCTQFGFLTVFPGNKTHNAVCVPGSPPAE
Method: as §1

[5] = biological target: T5, recombinant human GITR-Fc (R&D, 689-GR) (human, UniProt Q9Y5U5 26-161); test: as above
T5 construct: Bought construct; not shown: Fc part
T5 sequence (looked up): T4 sequence (looked up)
Method: as §1

[6] = biological target: T6, recombinant human LTBR-Fc (Acros Biosystems, LTR-H5251) (human, UniProt P36941 28-227, limits assumed); test: as above
T6 construct: Bought construct; not shown: Fc part
Method: as §1

[7] = biological target: T7, recombinant human DR6-Fc (SinoBiological, 10175-H02H) (human, UniProt O75509 42-349); test: as above
T7 construct: Bought construct; not shown: Fc part
T7 sequence (looked up): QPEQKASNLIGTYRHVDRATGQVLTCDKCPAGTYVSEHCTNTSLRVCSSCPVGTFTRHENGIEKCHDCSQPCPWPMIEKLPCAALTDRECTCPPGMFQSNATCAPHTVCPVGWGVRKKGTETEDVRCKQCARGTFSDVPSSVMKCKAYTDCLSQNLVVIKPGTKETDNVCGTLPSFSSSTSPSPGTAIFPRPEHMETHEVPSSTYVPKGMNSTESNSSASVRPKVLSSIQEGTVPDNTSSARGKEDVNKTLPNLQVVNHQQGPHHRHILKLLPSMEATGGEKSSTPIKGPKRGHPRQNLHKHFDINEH
Method: as §1

[8] = biological target: T8, recombinant human DR3-Fc (R&D, 943-D3) (human, UniProt Q93038 25-201, limits assumed); test: as above
T8 construct: Bought construct; not shown: Fc part
T8 sequence (looked up): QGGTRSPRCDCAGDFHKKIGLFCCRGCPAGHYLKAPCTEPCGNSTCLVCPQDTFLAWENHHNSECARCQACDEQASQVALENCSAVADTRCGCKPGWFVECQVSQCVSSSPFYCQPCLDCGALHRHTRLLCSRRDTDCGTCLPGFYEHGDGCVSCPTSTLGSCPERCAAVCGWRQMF
Method: as §1

[9] = biological target: T9, human OX40 expressed on cells (human, UniProt P43489 29-277); test: flow cytometry, 10-point titration 0.5-10,000 ng/ml, APC anti-human kappa detection
T9 construct: It was expressed ectopically on Jurkat cells or induced on Hut102 cells and primary T cells; also called huOX40; Jurkat-huOX40
T9 sequence: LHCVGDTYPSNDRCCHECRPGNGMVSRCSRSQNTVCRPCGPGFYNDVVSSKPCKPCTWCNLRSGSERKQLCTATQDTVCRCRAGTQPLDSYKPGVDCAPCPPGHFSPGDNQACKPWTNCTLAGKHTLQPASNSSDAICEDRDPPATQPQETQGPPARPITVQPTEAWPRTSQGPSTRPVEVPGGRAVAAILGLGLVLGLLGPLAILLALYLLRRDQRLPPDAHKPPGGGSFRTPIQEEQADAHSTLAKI
Method: Stable clones were generated via single-cell sorting (FACS ARIA Fusion). […] Samples were then washed two times and analyzed using the LSRFortessa flow cytometer (BD Biosciences). FACS plots were analyzed using a combination of FACS DIVA and WEHI Weasel software. Data were plotted with Graphpad Prism software.

[10] = biological target: T10, recombinant human OX40-His (SinoBiological, 10481-H08H) (human, UniProt P43489 29-216); test: Luminex suspension array, protein coupled to microspheres, PE MFI; antibody at 10, 100 and 1000 ng/ml
T10 construct: not shown: His tag
T10 sequence: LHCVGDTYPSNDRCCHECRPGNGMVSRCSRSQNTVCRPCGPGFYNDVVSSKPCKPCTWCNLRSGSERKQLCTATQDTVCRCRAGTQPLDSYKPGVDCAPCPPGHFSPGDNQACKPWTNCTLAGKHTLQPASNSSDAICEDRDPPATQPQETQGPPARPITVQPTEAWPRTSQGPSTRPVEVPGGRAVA
Method: as §1, with “Detection was carried out using 60 μl of goat anti-human IgG F(ab)₂ labeled with R-PE (2.5 μg/ml; JIR 109-116-098, AbDSerotec Rapid RPE Antibody Conjugation Kit, LNK022RPE) and another hour of incubation time (20° C., 650 rpm).” left out, “PE MFI values were used to determine specific or non-specific binding to the recombinant proteins mentioned above.” left out

[11] = biological target: T11, recombinant human OX40-Fc (R&D systems, 3388-OX) (human, UniProt P43489 29-216); test: as above
T11 construct: not shown: Fc part
T11 sequence: T10 sequence
Method: as §1, with “Detection was carried out using 60 μl of goat anti-human IgG F(ab)₂ labeled with R-PE (2.5 μg/ml; JIR 109-116-098, AbDSerotec Rapid RPE Antibody Conjugation Kit, LNK022RPE) and another hour of incubation time (20° C., 650 rpm).” left out, “PE MFI values were used to determine specific or non-specific binding to the recombinant proteins mentioned above.” left out

T3 sequence (Q96RJ3 7-71 limits assumed): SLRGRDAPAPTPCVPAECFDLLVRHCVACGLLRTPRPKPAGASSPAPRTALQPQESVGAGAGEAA
T2 sequence (Q07011 24-186 limits assumed): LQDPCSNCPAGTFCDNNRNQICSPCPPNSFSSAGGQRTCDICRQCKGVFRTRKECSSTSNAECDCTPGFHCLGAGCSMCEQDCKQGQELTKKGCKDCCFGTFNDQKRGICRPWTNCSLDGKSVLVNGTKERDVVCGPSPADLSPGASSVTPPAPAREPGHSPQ
T6 sequence (P36941 28-227 limits assumed): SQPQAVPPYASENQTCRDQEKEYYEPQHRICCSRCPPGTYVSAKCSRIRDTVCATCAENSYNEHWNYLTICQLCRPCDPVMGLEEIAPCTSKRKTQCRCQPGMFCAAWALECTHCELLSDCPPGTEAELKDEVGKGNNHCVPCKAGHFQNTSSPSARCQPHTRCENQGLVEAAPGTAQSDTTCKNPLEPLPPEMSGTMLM

binding result [9]: binds
binding result [10]: binds
binding result [11]: binds
B1: pab2049 (IgG1) (antibody, V domains shown)
VH: EVQLVESGGGLVQPGGSLKLSCAASGFTFSGSAMHWVRQASGKGLEWVGRIRSKANSYATAYAASVKGRFTISRDDSKNTAYLQMNSLKTEDTAVYYCTSGIYDSSGYDYWGQGTLVTVSS
VL: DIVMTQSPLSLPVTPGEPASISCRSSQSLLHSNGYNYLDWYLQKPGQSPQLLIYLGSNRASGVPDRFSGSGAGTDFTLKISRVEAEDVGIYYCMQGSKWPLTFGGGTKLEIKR
notes: Human IgG1; also called anti-OX40 antibody pab2049 (IgG1)
binding result [1]: no binding (tested: 10 ng/ml, 100 ng/ml and 1000 ng/ml)
binding result [2]: no binding (tested: 10 ng/ml, 100 ng/ml and 1000 ng/ml)
binding result [3]: no binding (tested: 10 ng/ml, 100 ng/ml and 1000 ng/ml)
binding result [4]: no binding (tested: 10 ng/ml, 100 ng/ml and 1000 ng/ml)
binding result [5]: no binding (tested: 10 ng/ml, 100 ng/ml and 1000 ng/ml)
binding result [6]: no binding (tested: 10 ng/ml, 100 ng/ml and 1000 ng/ml)
binding result [7]: no binding (tested: 10 ng/ml, 100 ng/ml and 1000 ng/ml)
binding result [8]: no binding (tested: 10 ng/ml, 100 ng/ml and 1000 ng/ml)
